Numbering of substitutions follows the chain as printed.
Legend:
[1] = test system: CsPUB21; format: biochemical, Citrus sinensis; details: in the presence of E1 (AtUBA1) and E2 (AtUBC8), anti-c-myc immunoblot
[2] = test system: Diaphorina citri Kuwayama; format: in vivo; details: overexpressing leaves versus blank vector control leaves, 100 psyllids starved 2 h, counted after 40 min
[3] = test system: CsMYC2; format: binding, Citrus sinensis; details: yeast AH109, SD-Leu-Trp-His with 5 mM 3-AT
[4] = test system: CsMYC2; format: cell-based, Citrus sinensis; details: tobacco leaves, 2-3 days, cytoplasm and nucleus
[5] = test system: CsMYC2; format: biochemical, Citrus sinensis; details: with AtUBA1, AtUBC8 and ubiquitin, anti-MBP immunoblot
[6] = test system: CsMYC2 protein; format: cell-based, Citrus sinensis; details: tobacco leaves, 35S:CsMYC2-myc co-injected, versus 35S:YFP

B1: CsPUB21DN (protein)
chain: MILSWKRLRGGRGRRAGKKQPGVESGGEMELTTPNHFRAPISLDLMKDPVTLSTGITYDRENIEKWIHEDGNITCPVTNRVLTSFEPIPNHTIRRMIQDWCVENRSYGIERIPTPRIPVSSVEVFEINCNITTACKSEDQAGCRDLVAKIKKWTKESDRNKRCIVDNGAVSVLAEAFETFSKTCLDENVSVLEEILSTLTLLFPLAGEGLTYLGSASSMRCMVWFLKSGDLSRRRNAVLVLREIVSSDHRKVNVLLDIEGAIEPLFKLIKEPICPTATKASLVVVYRTITSASATEKPIQKFVDMGLVSLLLEMLVDAQRSLCEKALSVLDGLCSSDYGRGDAYNNSLIFPVIVKKILRVSDLATEFAVSILWKLCKNEEREEKTAFAEALQVGAFQKLLLLLQVGCADKTKEHVSELLKLLNPHRARLECIDSMDFKDLKRPF
modifications: left off: large carriers
E3 ubiquitin ligase activity (auto-ubiquitination) [1]: does not show ubiquitination activity | Diaphorina citri Kuwayama attracted by leaves of transgenic citrus [2]: about 40% | interaction with CsMYC2 (yeast two-hybrid) [3]: does not affect the interaction with CsMYC2 | interaction with CsMYC2 (BiFC) [4]: does not affect the interaction with CsMYC2 | polyubiquitination of the CsMYC2 protein in vitro [5]: cannot ubiquitinate CsMYC2 | accumulated level of the CsMYC2 protein on coexpression [6]: this reduction was inhibited

B2: CsPUB21: citrus plant U-box E3 ubiquitin ligase protein, amino acid sequence SEQ ID No. 1; overexpressed in citrus (protein)
chain: B1 chain with A39C
Diaphorina citri Kuwayama attracted by leaves of transgenic citrus [2]: 63.5%

— patent publication US20260185118A1 (priority 2023, published 2026)
